Source: article doi:10.1101/495762 (bioRxiv, 2018)

Legend:
Smc3(K160C) = target: T1, Smc3(K160C) (S. cerevisiae, UniProt P47037 1-1230, K160C); test: cross-linking
T1 sequence (looked up): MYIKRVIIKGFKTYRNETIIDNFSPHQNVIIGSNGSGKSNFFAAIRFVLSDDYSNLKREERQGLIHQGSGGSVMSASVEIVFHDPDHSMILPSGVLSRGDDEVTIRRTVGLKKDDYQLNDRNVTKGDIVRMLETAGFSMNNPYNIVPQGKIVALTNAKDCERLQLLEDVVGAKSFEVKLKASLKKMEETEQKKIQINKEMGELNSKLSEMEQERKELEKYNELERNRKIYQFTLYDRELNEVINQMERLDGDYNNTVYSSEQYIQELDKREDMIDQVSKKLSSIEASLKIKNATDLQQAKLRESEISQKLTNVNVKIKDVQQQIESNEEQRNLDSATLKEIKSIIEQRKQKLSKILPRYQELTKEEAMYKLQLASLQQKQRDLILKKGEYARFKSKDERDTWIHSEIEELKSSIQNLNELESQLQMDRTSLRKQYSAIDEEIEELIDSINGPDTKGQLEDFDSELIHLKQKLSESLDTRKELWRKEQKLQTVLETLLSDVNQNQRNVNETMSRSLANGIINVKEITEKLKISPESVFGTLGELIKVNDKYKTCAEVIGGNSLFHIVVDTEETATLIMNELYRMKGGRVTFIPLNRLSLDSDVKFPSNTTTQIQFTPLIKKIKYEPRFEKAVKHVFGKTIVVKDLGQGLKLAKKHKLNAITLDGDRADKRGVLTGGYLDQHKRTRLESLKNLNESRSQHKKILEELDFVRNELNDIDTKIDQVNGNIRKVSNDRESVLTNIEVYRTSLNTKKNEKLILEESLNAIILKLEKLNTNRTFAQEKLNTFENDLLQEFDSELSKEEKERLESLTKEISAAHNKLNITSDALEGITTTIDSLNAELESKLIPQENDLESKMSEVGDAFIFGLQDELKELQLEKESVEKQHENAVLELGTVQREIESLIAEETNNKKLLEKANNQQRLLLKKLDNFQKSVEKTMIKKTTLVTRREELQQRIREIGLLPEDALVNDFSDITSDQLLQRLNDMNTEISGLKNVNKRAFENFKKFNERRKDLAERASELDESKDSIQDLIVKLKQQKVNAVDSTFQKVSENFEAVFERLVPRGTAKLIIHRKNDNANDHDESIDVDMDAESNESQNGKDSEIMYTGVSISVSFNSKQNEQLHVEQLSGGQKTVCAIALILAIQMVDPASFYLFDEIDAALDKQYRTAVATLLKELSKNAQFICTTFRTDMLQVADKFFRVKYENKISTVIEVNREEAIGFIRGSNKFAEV

acetylated Smc3(K160C) = target: T2, acetylated Smc3(K160C) (S. cerevisiae, UniProt P47037 1-1230, K160C, acetylated, residues not given); test: cross-linking
T2 sequence (looked up): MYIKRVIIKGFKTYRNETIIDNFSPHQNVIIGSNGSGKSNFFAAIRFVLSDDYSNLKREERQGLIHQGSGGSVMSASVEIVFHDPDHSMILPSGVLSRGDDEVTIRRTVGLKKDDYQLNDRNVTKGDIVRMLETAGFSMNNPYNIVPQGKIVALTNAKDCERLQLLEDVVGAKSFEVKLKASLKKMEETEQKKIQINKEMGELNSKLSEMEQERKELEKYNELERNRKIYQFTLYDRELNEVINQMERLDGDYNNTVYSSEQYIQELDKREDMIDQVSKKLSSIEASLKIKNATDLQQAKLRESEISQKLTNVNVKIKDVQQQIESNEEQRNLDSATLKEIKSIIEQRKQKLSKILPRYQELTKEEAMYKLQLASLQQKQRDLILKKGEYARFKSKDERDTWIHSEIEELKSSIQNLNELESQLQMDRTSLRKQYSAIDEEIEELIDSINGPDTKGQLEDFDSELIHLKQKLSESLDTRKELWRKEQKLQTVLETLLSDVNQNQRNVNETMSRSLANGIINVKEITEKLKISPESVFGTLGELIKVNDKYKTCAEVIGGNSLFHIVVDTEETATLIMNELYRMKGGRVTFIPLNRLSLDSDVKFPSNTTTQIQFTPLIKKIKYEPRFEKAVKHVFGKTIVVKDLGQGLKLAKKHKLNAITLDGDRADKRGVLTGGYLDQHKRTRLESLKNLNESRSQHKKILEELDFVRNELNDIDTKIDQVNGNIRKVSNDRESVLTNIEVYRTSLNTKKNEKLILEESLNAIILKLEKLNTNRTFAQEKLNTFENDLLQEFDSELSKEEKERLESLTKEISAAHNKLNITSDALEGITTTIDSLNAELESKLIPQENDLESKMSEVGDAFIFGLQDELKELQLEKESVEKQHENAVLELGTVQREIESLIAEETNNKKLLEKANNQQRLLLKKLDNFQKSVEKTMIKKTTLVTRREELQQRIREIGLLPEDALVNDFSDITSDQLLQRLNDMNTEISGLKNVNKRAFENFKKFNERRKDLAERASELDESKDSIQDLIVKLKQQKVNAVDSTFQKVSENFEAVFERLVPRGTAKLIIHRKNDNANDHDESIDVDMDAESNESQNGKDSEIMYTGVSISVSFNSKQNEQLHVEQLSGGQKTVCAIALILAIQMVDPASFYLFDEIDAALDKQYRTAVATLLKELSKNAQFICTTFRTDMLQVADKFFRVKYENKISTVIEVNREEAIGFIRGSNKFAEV

B1: Smc1(S161C)-HA6 (natural protein, S. cerevisiae, UniProt P32908 1-1225, looked up)
chain: MGRLVGLELSNFKSYRGVTKVGFGESNFTSIIGPNGSGKSNMMDAISFVLGVRSNHLRSNILKDLIYRGVLNDENSDDYDNEGAASSNPQSAYVKAFYQKGNKLVELMRIISRNGDTSYKIDGKTVSYKDYSIFLENENILIKAKNFLVFQGDVEQIAAQCPVELSRMFEEVSGSIQYKKEYEELKEKIEKLSKSATESIKNRRRIHGELKTYKEGINKNEEYRKQLDKKNELQKFQALWQLYHLEQQKEELTDKLSALNSEISSLKGKINNEMKSLQRSKSSFVKESAVISKQKSKLDYIFKDKEKLVSDLRLIKVPQQAAGKRISHIEKRIESLQKDLQRQKTYVERFETQLKVVTRSKEAFEEEIKQSARNYDKFKLNENDLKTYNCLHEKYLTEGGSILEEKIAVLNNDKREIQEELERFNKRADISKRRITEELSITGEKLDTQLNDLRVSLNEKNALHTERLHELKKLQSDIESANNQEYDLNFKLRETLVKIDDLSANQRETMKERKLRENIAMLKRFFPGVKGLVHDLCHPKKEKYGLAVSTILGKNFDSVIVENLTVAQECIAFLKKQRAGTASFIPLDTIETELPTLSLPDSQDYILSINAIDYEPEYEKAMQYVCGDSIICNTLNIAKDLKWKKGIRGKLVTIEGALIHKAGLMTGGISGDANNRWDKEEYQSLMSLKDKLLIQIDELSNGQRSNSIRAREVENSVSLLNSDIANLRTQVTQQKRSLDENRLEIKYHNDLIEKEIQPKITELKKKLDDLENTKDNLVKEKEALQNNIFKEFTSKIGFTIKEYENHSGELMRQQSKELQQLQKQILTVENKLQFETDRLSTTQRRYEKAQKDLENAQVEMKSLEEQEYAIEMKIGSIESKLEEHKNHLDELQKKFVTKQSELNSSEDILEDMNSNLQVLKRERDGIKEDIEKFDLERVTALKNCKISNINIPISSETTIDDLPISSTDNEAITISNSIDINYKGLPKKYKENNTDSARKELEQKIHEVEEILNELQPNARALERYDEAEGRFEVINNETEQLKAEEKKILNQFLKIKKKRKELFEKTFDYVSDHLDAIYRELTKNPNSNVELAGGNASLTIEDEDEPFNAGIKYHATPPLKRFKDMEYLSGGEKTVAALALLFAINSYQPSPFFVLDEVDAALDITNVQRIAAYIRRHRNPDLQFIVISLKNTMFEKSDALVGVYRQQQENSSKIITLDLSNYAE
Smc3(K160C)
  cross-linking efficiency: 7%
Acetylated Smc3(K160C)
  cross-linking efficiency: 37%
